Results taken from article PMC3961685, “Origin of the Proton-transfer Step in the Cofactor-free (1H)-3-Hydroxy-4-oxoquinaldine 2,4-Dioxygenase” (The Journal of Biological Chemistry, 2014).

Legend:
[1] = target: T1, HOD (WT HOD = HOD C69S); (1H)-3-hydroxy-4-oxoquinaldine 2,4-dioxygenase (Paenarthrobacter nitroguajacolicus, UniProt O31266, C69S); assay: anaerobic stopped-flow, QND deprotonation at […] nm, kobs vs [QND] fit; type: binding
T1 construct: full-length HOD C69S in pQE30 (His-tag vector, Ni column); ~31 kDa monomer
T1 sequence (O31266 whole entry C69S): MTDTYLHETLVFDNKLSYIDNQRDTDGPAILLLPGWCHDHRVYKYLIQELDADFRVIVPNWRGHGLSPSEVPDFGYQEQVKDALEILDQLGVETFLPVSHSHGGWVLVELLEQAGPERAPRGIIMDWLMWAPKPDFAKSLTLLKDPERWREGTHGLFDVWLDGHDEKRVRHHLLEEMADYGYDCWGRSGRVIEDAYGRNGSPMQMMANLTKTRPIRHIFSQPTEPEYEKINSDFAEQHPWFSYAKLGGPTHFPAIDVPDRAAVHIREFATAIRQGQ

[2] = target: T2, HOD (WT HOD = HOD C69S); (1H)-3-hydroxy-4-oxoquinaldine 2,4-dioxygenase (Paenarthrobacter nitroguajacolicus, UniProt O31266, C69S/H251A); assay: X-ray crystal structure, […] Å, crystal soaked with QND; type: binding; conditions: 2 mM QND soak about 2 h, pH 7.0; active site
T2 construct: full-length HOD C69S in pQE30 (His-tag vector, Ni column); ~31 kDa monomer
T2 sequence (O31266 whole entry C69S/H251A): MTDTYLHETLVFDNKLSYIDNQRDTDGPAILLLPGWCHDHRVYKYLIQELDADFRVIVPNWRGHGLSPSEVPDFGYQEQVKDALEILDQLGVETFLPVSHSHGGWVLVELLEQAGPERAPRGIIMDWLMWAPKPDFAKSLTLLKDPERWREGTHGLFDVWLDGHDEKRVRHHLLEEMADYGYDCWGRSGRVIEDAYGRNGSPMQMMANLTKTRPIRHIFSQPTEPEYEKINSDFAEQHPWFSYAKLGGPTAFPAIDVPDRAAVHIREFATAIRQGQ

Cc1[nH]c2ccccc2c(=O)c1O = assay: purified protein; type: biochemical, Paenarthrobacter nitroguajacolicus; conditions: pH 6.5, air-saturated 0.1 M MTE, 5 mM NaCl, 2 mM EDTA, 20 °C, O2 co-substrate, also measured at pH 10.5

Cc1[nH]c2ccccc2c(=O)c1O [QND, (1H)-3-hydroxy-4-oxoquinaldine]
Kd [1]: 214 ± 9 µM | X-ray crystal structure, 1.95 Å, crystal soaked with QND [2]: we solved the x-ray structure of this variant in complex with the QND substrate

HOD (WT HOD = HOD C69S); (1H)-3-hydroxy-4-oxoquinaldine 2,4-dioxygenase (Paenarthrobacter nitroguajacolicus; C69S)
Km (Cc1[nH]c2ccccc2c(=O)c1O): 3.2 ± 0.1 µM | kcat (Cc1[nH]c2ccccc2c(=O)c1O): 16.3 ± 0.1 s⁻¹

HOD (WT HOD = HOD C69S); (1H)-3-hydroxy-4-oxoquinaldine 2,4-dioxygenase (Paenarthrobacter nitroguajacolicus; C69S/D126A)
Km (Cc1[nH]c2ccccc2c(=O)c1O): 20.9 ± 0.6 µM | kcat (Cc1[nH]c2ccccc2c(=O)c1O): 0.19 ± 0.01 s⁻¹

HOD (WT HOD = HOD C69S); (1H)-3-hydroxy-4-oxoquinaldine 2,4-dioxygenase (Paenarthrobacter nitroguajacolicus; C69S/H251A)
Km (Cc1[nH]c2ccccc2c(=O)c1O): 58.9 ± 14.6 µM | kcat (Cc1[nH]c2ccccc2c(=O)c1O): 0.0006 ± 0.0001 s⁻¹
